# Data as given in patent publication US20180155451A1 (published 2018).
# T1: FcγRIIb (human, UniProt P31994 43-217)
# T1 construct: extracellular domain; also called FcgRIIb; 2b
# T1 sequence (looked up): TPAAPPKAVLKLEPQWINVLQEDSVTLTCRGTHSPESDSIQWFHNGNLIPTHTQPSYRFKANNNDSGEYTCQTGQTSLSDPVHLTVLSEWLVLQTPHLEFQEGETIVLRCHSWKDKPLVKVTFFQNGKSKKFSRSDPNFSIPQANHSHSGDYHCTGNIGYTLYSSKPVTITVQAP
# B1: GpH7-A5/GpH7-B3 variant A327_15Y/GpL16-k0 (antibody, human IgG1, kappa)
# heavy 1: not shown
# heavy 2: not shown
# light: DIVMTQSPLSLPVTPGEPASISCQASESLVHSNRNTYLHWYLQKPGQSPQLLIYKVSNRFSGVPDRFSGSGSGTDFTLKISRVEAEDVGVYYCSQNTHVPPTFGQGTKVEIERTVAAPSVFIFPPSDEQLKSGTASVVCLLNNFYPREAKVQWKVDNALQSGNSQESVTEQDSKDSTYSLSSTLTLSKADYEKHKVYACEVTHQGLSSPVTKSFNRGEC
# notes: heterodimerized IgG1, one H chain mutated; also called He Ab
# B2: GpH7-A5/GpH7-B3 variant S298_16H/GpL16-k0 (antibody, human IgG1, kappa)
# heavy 1: not shown
# heavy 2: not shown
# light: B1 light
# notes: as for B1
# B3: GpH7-A5/GpH7-B3 variant S298_12R/GpL16-k0 (antibody, human IgG1, kappa)
# heavy 1: not shown
# heavy 2: not shown
# light: B1 light
# notes: as for B1
# B4: GpH7-A5/GpH7-B3 variant N325_11K/GpL16-k0 (antibody, human IgG1, kappa)
# heavy 1: not shown
# heavy 2: not shown
# light: B1 light
# notes: as for B1
# B5: GpH7-A5/GpH7-B3 variant S324_18N/GpL16-k0 (antibody, human IgG1, kappa)
# heavy 1: not shown
# heavy 2: not shown
# light: B1 light
# notes: as for B1
# B6: GpH7-A5/GpH7-B3 variant S298_14T/GpL16-k0 (antibody, human IgG1, kappa)
# heavy 1: not shown
# heavy 2: not shown
# light: B1 light
# notes: as for B1
# B7: GpH7-A5/GpH7-B3 variant S324_19Q/GpL16-k0 (antibody, human IgG1, kappa)
# heavy 1: not shown
# heavy 2: not shown
# light: B1 light
# notes: as for B1
# B8: GpH7-A5/GpH7-B3 variant S324_10E/GpL16-k0 (antibody, human IgG1, kappa)
# heavy 1: not shown
# heavy 2: not shown
# light: B1 light
# notes: as for B1
# B9: GpH7-A5/GpH7-B3 variant S324_16H/GpL16-k0 (antibody, human IgG1, kappa)
# heavy 1: not shown
# heavy 2: not shown
# light: B1 light
# notes: as for B1
# B10: GpH7-A5/GpH7-B3 variant S324_20W/GpL16-k0 (antibody, human IgG1, kappa)
# heavy 1: not shown
# heavy 2: not shown
# light: B1 light
# notes: as for B1
# B11: GpH7-A5/GpH7-B3 variant A327_19Q/GpL16-k0 (antibody, human IgG1, kappa)
# heavy 1: not shown
# heavy 2: not shown
# light: B1 light
# notes: as for B1
# B12: GpH7-A5/GpH7-B3 variant S324_11K/GpL16-k0 (antibody, human IgG1, kappa)
# heavy 1: not shown
# heavy 2: not shown
# light: B1 light
# notes: as for B1
# B13: GpH7-A5/GpH7-B3 variant S324_01G/GpL16-k0 (antibody, human IgG1, kappa)
# heavy 1: not shown
# heavy 2: not shown
# light: B1 light
# notes: as for B1
# B14: GpH7-A5/GpH7-B3 variant S298_10E/GpL16-k0 (antibody, human IgG1, kappa)
# heavy 1: not shown
# heavy 2: not shown
# light: B1 light
# notes: as for B1
# B15: GpH7-A5/GpH7-B3 variant S298_18N/GpL16-k0 (antibody, human IgG1, kappa)
# heavy 1: not shown
# heavy 2: not shown
# light: B1 light
# notes: as for B1
# B16: GpH7-A5/GpH7-B3 variant S298_15Y/GpL16-k0 (antibody, human IgG1, kappa)
# heavy 1: not shown
# heavy 2: not shown
# light: B1 light
# notes: as for B1
# B17: GpH7-A5/GpH7-B3 variant S324_15Y/GpL16-k0 (antibody, human IgG1, kappa)
# heavy 1: not shown
# heavy 2: not shown
# light: B1 light
# notes: as for B1
# B18: GpH7-A5/GpH7-B3 variant N325_19Q/GpL16-k0 (antibody, human IgG1, kappa)
# heavy 1: not shown
# heavy 2: not shown
# light: B1 light
# notes: as for B1
# B19: GpH7-A5/GpH7-B3 variant S298_19Q/GpL16-k0 (antibody, human IgG1, kappa)
# heavy 1: not shown
# heavy 2: not shown
# light: B1 light
# notes: as for B1
# B20: GpH7-A5/GpH7-B3 variant N325_02A/GpL16-k0 (antibody, human IgG1, kappa)
# heavy 1: not shown
# heavy 2: not shown
# light: B1 light
# notes: as for B1
# B21: GpH7-A5/GpH7-B3 variant S298_09D/GpL16-k0 (antibody, human IgG1, kappa)
# heavy 1: not shown
# heavy 2: not shown
# light: B1 light
# notes: as for B1
# B22: GpH7-A5/GpH7-B3 variant S324_14T/GpL16-k0 (antibody, human IgG1, kappa)
# heavy 1: not shown
# heavy 2: not shown
# light: B1 light
# notes: as for B1
# B23: GpH7-A5/GpH7-B3 variant N325_12R/GpL16-k0 (antibody, human IgG1, kappa)
# heavy 1: not shown
# heavy 2: not shown
# light: B1 light
# notes: as for B1
# B24: GpH7-A5/GpH7-B3 variant S324_09D/GpL16-k0 (antibody, human IgG1, kappa)
# heavy 1: not shown
# heavy 2: not shown
# light: B1 light
# notes: as for B1
# B25: GpH7-A5/GpH7-B3 variant S298_11K/GpL16-k0 (antibody, human IgG1, kappa)
# heavy 1: not shown
# heavy 2: not shown
# light: B1 light
# notes: as for B1
# B26: GpH7-A5/GpH7-B3 variant S298_20W/GpL16-k0 (antibody, human IgG1, kappa)
# heavy 1: not shown
# heavy 2: not shown
# light: B1 light
# notes: as for B1
# B27: GpH7-A5/GpH7-B3 variant A327_16H/GpL16-k0 (antibody, human IgG1, kappa)
# heavy 1: not shown
# heavy 2: not shown
# light: B1 light
# notes: as for B1
# B28: GpH7-A5/GpH7-B3 variant S324_02A/GpL16-k0 (antibody, human IgG1, kappa)
# heavy 1: not shown
# heavy 2: not shown
# light: B1 light
# notes: as for B1
# B29: GpH7-A5/GpH7-B3 variant S324_12R/GpL16-k0 (antibody, human IgG1, kappa)
# heavy 1: not shown
# heavy 2: not shown
# light: B1 light
# notes: as for B1
# B30: GpH7-A5/GpH7-B3 variant N325_16H/GpL16-k0 (antibody, human IgG1, kappa)
# heavy 1: not shown
# heavy 2: not shown
# light: B1 light
# notes: as for B1
# B31: GpH7-A5/GpH7-B3 variant N325_05P/GpL16-k0 (antibody, human IgG1, kappa)
# heavy 1: not shown
# heavy 2: not shown
# light: B1 light
# notes: as for B1
# Biological target: T2, FcγRIa (human, UniProt P12314 16-292)
# T2 construct: extracellular domain; also called FcgRI; FcgRIa
# T2 sequence (P12314 16-292): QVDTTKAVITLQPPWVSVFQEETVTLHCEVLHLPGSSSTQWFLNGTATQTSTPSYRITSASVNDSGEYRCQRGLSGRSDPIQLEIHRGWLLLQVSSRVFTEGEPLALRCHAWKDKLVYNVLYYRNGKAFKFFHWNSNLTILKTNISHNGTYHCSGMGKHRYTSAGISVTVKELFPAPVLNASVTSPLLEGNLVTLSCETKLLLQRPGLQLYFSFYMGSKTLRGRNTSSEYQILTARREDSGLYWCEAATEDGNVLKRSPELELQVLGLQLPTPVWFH
# Assay: SPR (Biacore), relative to GpH7-A5/GpH7-B3/GpL16-k0 = 100
# Description: (§1) The heterodimerized antibodies He Abs in which one of the H chains was introduced with an alteration were assayed for their binding activities to each activating FcγR and inhibitory FcγR according to the method described in Example 4. […] The activating FcγRs in FIGS. 26, 27, 28, and 29 are FcγRIa, FcγRIIa (R), FcγRIIa (H), and FcγRIIIa, respectively.
# (§2) Analysis of interaction between objective antibody and the FcγR was carried out using Biacore T100 (GE Healthcare). HBS-EP+ (GE Healthcare) was used as the running buffer, and the measurement temperature was set to 25° C. Chips produced by immobilizing the antigen peptide by the amine coupling method to a Series S Sencor Chip CM5 (GE Healthcare), or alternatively, chips produced by allowing preliminarily biotinylated antigen peptides to interact with and immobilize onto a Series S Sensor Chip SA (certified) (GE Healthcare) were used. Antibodies of interest were captured onto an antigen peptide-immobilized chip, and allowed to interact to each FcγR diluted with running buffer. To regenerate and repeatedly use the chip, the antibodies captured on the chip were washed off by reacting 10 mM glycine-HCl, pH 1.5.
row,He/Con_1a (Ia binding),Binder
1,96.3 relative (control = 100),B1
2,109 relative (control = 100),B2
3,109 relative (control = 100),B3
4,80.9 relative (control = 100),B4
5,116 relative (control = 100),B5
6,107 relative (control = 100),B6
7,112 relative (control = 100),B7
8,105 relative (control = 100),B8
9,113 relative (control = 100),B9
10,114 relative (control = 100),B10
11,96.2 relative (control = 100),B11
12,102 relative (control = 100),B12
13,98.8 relative (control = 100),B13
14,108 relative (control = 100),B14
15,108 relative (control = 100),B15
16,107 relative (control = 100),B16

row,He/Con_1a (Ia binding),Binder
1,114 relative (control = 100),B17
2,99.1 relative (control = 100),B18
3,109 relative (control = 100),B19
4,96.8 relative (control = 100),B20
5,106 relative (control = 100),B21
6,121 relative (control = 100),B22
7,84.2 relative (control = 100),B23
8,104 relative (control = 100),B24
9,109 relative (control = 100),B25
10,104 relative (control = 100),B26
11,96.5 relative (control = 100),B27
12,103 relative (control = 100),B28
13,102 relative (control = 100),B29
14,95.1 relative (control = 100),B30
15,88.8 relative (control = 100),B31

# Biological target: T1, FcγRIIb
# Assay: as above
# Description: as §1, §2
row,He/Con_2b (IIb binding),Binder
1,60.8 relative (control = 100),B1
2,63.5 relative (control = 100),B2
3,57.8 relative (control = 100),B3
4,10.4 relative (control = 100),B4
5,81.1 relative (control = 100),B5
6,77.9 relative (control = 100),B6
7,66.8 relative (control = 100),B7
8,77.4 relative (control = 100),B8
9,83.5 relative (control = 100),B9
10,87.5 relative (control = 100),B10
11,54.2 relative (control = 100),B11
12,68.6 relative (control = 100),B12
13,81.1 relative (control = 100),B13
14,47.6 relative (control = 100),B14
15,48.1 relative (control = 100),B15
16,61.4 relative (control = 100),B16

row,He/Con_2b (IIb binding),Binder
1,88.2 relative (control = 100),B17
2,69.1 relative (control = 100),B18
3,73.3 relative (control = 100),B19
4,64.4 relative (control = 100),B20
5,48.3 relative (control = 100),B21
6,88.4 relative (control = 100),B22
7,19.1 relative (control = 100),B23
8,85.8 relative (control = 100),B24
9,61.3 relative (control = 100),B25
10,41.1 relative (control = 100),B26
11,63.5 relative (control = 100),B27
12,78.3 relative (control = 100),B28
13,63.1 relative (control = 100),B29
14,70.1 relative (control = 100),B30
15,26 relative (control = 100),B31

# Biological target: T2, FcγRIa
# Assay: SPR (Biacore); He/Con_1a (FcgRIa) divided by He/Con_2b (FcgRIIb)
# Description: as §1, §2
row,Ia/IIb He_1a/2b,Binder
1,1.58,B1
2,1.71,B2
3,1.89,B3
4,7.81,B4
5,1.42,B5
6,1.37,B6
7,1.68,B7
8,1.35,B8
9,1.35,B9
10,1.31,B10
11,1.78,B11
12,1.49,B12
13,1.22,B13
14,2.28,B14
15,2.25,B15
16,1.75,B16

row,Ia/IIb He_1a/2b,Binder
1,1.29,B17
2,1.43,B18
3,1.49,B19
4,1.5,B20
5,2.19,B21
6,1.37,B22
7,4.41,B23
8,1.21,B24
9,1.78,B25
10,2.53,B26
11,1.52,B27
12,1.31,B28
13,1.61,B29
14,1.36,B30
15,3.42,B31
